Data published in the supplement of paper PMC10724198.
± gives the standard deviation of the averaged measurements.

Test system: Saccharomyces cerevisiae
Assay: protein stability index of tFT-peptide fusion (C-terminal peptide) (PSI (0-1 scale)); higher = more stable (slower turnover)
Conditions: genetic background: wild type; temperature: 30 C
Description: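 Multiplexed protein stability (MPS) profiling in S. cerevisiae. Random 12-aa peptides (tFT-X12 library) are fused to the C-terminus of a sfGFP-mCherry tandem fluorescent timer, after mCherry and a GGGS linker. Cells are FACS-sorted into 8 mCherry/sfGFP bins and deep-sequenced. The protein stability index (PSI) is the read-weighted bin average, scaled from 0 (unstable) to 1 (stable). Only peptides with >10 reads are reported; cells were grown at 30 °C in SC-His with glucose.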
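Also: PSI is a weighted mean of sequencing reads over stability bins, variants kept only with over 10 reads, mCherry proximal and sfGFP distal, peptide attached via GGGS linker.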

| Sequence | protein stability index |
| --- | --- |
| INTVGRCCGLVE | 0.681 ± 0.043 |
| IPFPSSARLRAD | 0.708 ± 0.02 |
| IPGVPEGLRSLH | 0.629 ± 0.06 |
| IPRGTTTFLLEV | 0.638 ± 0.041 |
| IPRRSSIPDKTP | 0.718 ± 0.045 |
| IPSSMWHICCLC | 0.538 ± 0.025 |
| IQGRFYPLLEAH | 0.606 ± 0.032 |
| IQYGSSVRREGR | 0.72 ± 0.22 |
| IRIDRNLNSLGK | 0.685 ± 0.017 |
| IRIKLTYYKSYL | 0.678 ± 0.13 |
| IRKIIHIDNGNT | 0.741 ± 0.096 |
| IRKNLIPLTIFT | 0.538 ± 0.028 |
| IRMEYVNTVINK | 0.642 ± 0.049 |
| IRPPVLTDAIHS | 0.708 ± 0.013 |
| IRPSVCQAPDMR | 0.679 ± 0.042 |
| IRRGRQGGEHEK | 0.702 ± 0.097 |
| IRSLSGPLSRTF | 0.673 ± 0.076 |
| IRYEVVDLEPRG | 0.693 ± 0.15 |
| ISEIRHSGFTRL | 0.741 ± 0.084 |
| ISGTDGVRHFLG | 0.662 ± 0.018 |
| ISIFTCLGRFSL | 0.677 ± 0.037 |
| ISLRELNEVCRS | 0.668 ± 0.029 |
| ISQNPYNGTGQE | 0.6886 ± 0.001 |
| ISTSPRCCPRLL | 0.714 ± 0.023 |
| ITNKKKIKDKQT | 0.593 ± 0.033 |

| Sequence | protein stability index |
| --- | --- |
| ITQTRGPRPLAH | 0.7471 ± 0.0043 |
| ITSFIKSDKSSK | 0.696 ± 0.029 |
| ITTNTESSRQSY | 0.702 ± 0.014 |
| ITVFRAEVRTKK | 0.6846 ± 0.0054 |
| ITVWVLSDGIGV | 0.5619 ± 0.002 |
| IVDYSRYVIGLE | 0.663 ± 0.0095 |
| IVFTPPSVTFHA | 0.825 ± 0.22 |
| IVLGPHNFLTIL | 0.676 ± 0.018 |
| IVLSRVHLLVGP | 0.5798 ± 0.0032 |
| IVPFLLFYSPPA | 0.719 ± 0.055 |
| IVRNDRSGPWGD | 0.756 ± 0.12 |
| IYFRILKKRSKT | 0.639 ± 0.02 |
| IYGCISVYYSSG | 0.562 ± 0.014 |
| IYSPLSPSTAPA | 0.664 ± 0.012 |
| IYSTRWRRGRVE | 0.699 ± 0.044 |
| KAAQREVDLLVT | 0.668 ± 0.021 |
| KAHSFAYVINCL | 0.589 ± 0.045 |
| KAKKLRKKNENK | 0.671 ± 0.038 |
| KAKKNNERAKHR | 0.681 ± 0.029 |
| KDATVILSSRRR | 0.745 ± 0.024 |
| KDCGSVRQGLRY | 0.754 ± 0.04 |
| KDGAGGDWDVGE | 0.6948 ± 0.006 |
| KDINNQKKETQR | 0.683 ± 0.047 |
| KDIVSQEEHAPL | 0.678 ± 0.036 |
| KDNAPTLPQGGN | 0.662 ± 0.06 |

| Sequence | protein stability index |
| --- | --- |
| KDTGTNKASRGQ | 0.67 ± 0.014 |
| KEATTEKNTTRA | 0.6895 ± 0.0023 |
| KEILATRQKSST | 0.738 ± 0.04 |
| KEKSSKRSGKTE | 0.644 ± 0.15 |
| KENKKKNKKYKK | 0.785 ± 0.16 |
| KERYKNHGQKAS | 0.683 ± 0.017 |
| KETNIKKRRARG | 0.6458 ± 0.0021 |
| KFKGIKEINNGN | 0.633 ± 0.074 |
| KGGCPTASARVL | 0.5735 ± 0.0011 |
| KGGKVGRAGEKG | 0.644 ± 0.098 |
| KGIGWSSDGGMG | 0.67 ± 0.02 |
| KGKGREEEDISK | 0.674 ± 0.015 |
| KGKKTTKTDAKK | 0.612 ± 0.061 |
| KGKRGKKKEESN | 0.6515 ± 0.0039 |
| KGNDQVLRLFIR | 0.73 ± 0.021 |
| KGNRGKDAVKTE | 0.7556 ± 0.004 |
| KGRFILKCKDIF | 0.637 ± 0.071 |
| KGRFTKTKLRVH | 0.5602 ± 0.0013 |
| KGRGEVGTRRYG | 0.638 ± 0.079 |
| KGRSKHIKGKRR | 0.743 ± 0.033 |
| KGTKIGRPVRVI | 0.689 ± 0.016 |
| KHLNFNTNKRKD | 0.651 ± 0.0093 |
| KHPMRLPHTRRA | 0.706 ± 0.045 |
| KHTNWGKQLIMT | 0.5631 ± 0.0016 |
| KICHTKKKNKKK | 0.769 ± 0.046 |

| Sequence | protein stability index |
| --- | --- |
| KIGSQLAGYKIS | 0.595 ± 0.063 |
| KIKKKKKNTKTK | 0.666 ± 0.047 |
| KIKKRRKKDNKR | 0.7145 ± 0.0013 |
| KIKSKKEKPQVT | 0.687 ± 0.023 |
| KIKTKKGTKKRK | 0.677 ± 0.039 |
| KIRINKKVKNKK | 0.671 ± 0.005 |
| KITLKSNKTTDN | 0.741 ± 0.018 |
| KIVCTLGPAFAR | 0.672 ± 0.051 |
| KIVKNQKKKKQR | 0.732 ± 0.019 |
| KKARGYTLEQRR | 0.736 ± 0.051 |
| KKEEEGNREEKL | 0.689 ± 0.038 |
| KKEEEGRTKECR | 0.694 ± 0.093 |
| KKEEKKKNKNDR | 0.679 ± 0.027 |
| KKEISEKTNKKL | 0.69 ± 0.012 |
| KKEKKVKKNRKR | 0.729 ± 0.021 |
| KKEKQKKKIKTK | 0.703 ± 0.055 |
| KKERTGTKKKKK | 0.698 ± 0.048 |
| KKESNFVKKKEI | 0.741 ± 0.024 |
| KKGIKEYYKVQK | 0.775 ± 0.16 |
| KKHEKVKSNTKR | 0.666 ± 0.03 |
| KKIYEKRKKLRK | 0.756 ± 0.057 |
| KKKDRENIKNKI | 0.7151 ± 0.0068 |
| KKKEENGGRGDE | 0.7008 ± 0.0041 |
| KKKKDQQQELKN | 0.657 ± 0.032 |
| KKKKEKKETKKK | 0.67 ± 0.028 |

| Sequence | protein stability index |
| --- | --- |
| KKKKEKKYKERY | 0.721 ± 0.13 |
| KKKKGKKRRTRK | 0.72 ± 0.041 |
| KKKKKIKKKHNK | 0.6859 ± 0.001 |
| KKKKKKGKGAKT | 0.617 ± 0.011 |
| KKKKKKKKKKTR | 0.6407 ± 0.0016 |
| KKKKKKKKTNKK | 0.762 ± 0.084 |
| KKKKKKKRNKHN | 0.706 ± 0.048 |
| KKKKKKNKKTKN | 0.711 ± 0.045 |
| KKKKKKQQKKRK | 0.686 ± 0.039 |
| KKKKKKTKKKNK | 0.719 ± 0.016 |
| KKKKKKVRYIRI | 0.671 ± 0.046 |
| KKKKKQKDTKHR | 0.682 ± 0.018 |
| KKKKKQKKKKKK | 0.643 ± 0.048 |
| KKKKKQTKGKNK | 0.688 ± 0.12 |
| KKKKKRKKKKEK | 0.683 ± 0.044 |
| KKKKKTKKKAEK | 0.701 ± 0.022 |
| KKKKPKKKTQKS | 0.713 ± 0.04 |
| KKKKQNKRKRKT | 0.635 ± 0.0086 |
| KKKKQRKQEKKI | 0.642 ± 0.008 |
| KKKKREKSKHRK | 0.714 ± 0.022 |
| KKKKRIQEKEII | 0.63 ± 0.015 |
| KKKKRKIPKKKK | 0.635 ± 0.11 |
| KKKKTEIKRNKT | 0.689 ± 0.026 |
| KKKKTKKKTNSI | 0.727 ± 0.0076 |
| KKKKTKYIKRKK | 0.701 ± 0.18 |

| Sequence | protein stability index |
| --- | --- |
| KKKKTQKKKTKQ | 0.668 ± 0.019 |
| KKKKTVHKKNRR | 0.699 ± 0.022 |
| KKKLKYKGIRTN | 0.679 ± 0.049 |
| KKKNNRITVFKV | 0.636 ± 0.067 |
| KKKQKYRREEKE | 0.724 ± 0.051 |
| KKKQPKKNQNPT | 0.767 ± 0.075 |
| KKKRKKSKKKKK | 0.642 ± 0.1 |
| KKKRRFTQEMDK | 0.684 ± 0.17 |
| KKKTKNGKEKRR | 0.7 ± 0.019 |
| KKLRNKKGKRYA | 0.645 ± 0.086 |
| KKLSSRTQGLHG | 0.746 ± 0.059 |
| KKLSTYSVIEKS | 0.601 ± 0.042 |
| KKMKEKKKRNHA | 0.712 ± 0.035 |
| KKNKAKRKKYIV | 0.616 ± 0.03 |
| KKNKHKEKIKKK | 0.723 ± 0.069 |
| KKQKKHKKEKEK | 0.638 ± 0.019 |
| KKQKKKKSTKRN | 0.722 ± 0.038 |
| KKQRKRTKRKRK | 0.693 ± 0.048 |
| KKREEVKKNIKI | 0.681 ± 0.019 |
| KKRERNDKRGCQ | 0.652 ± 0.024 |
| KKRKKKKQTKRK | 0.691 ± 0.022 |
| KKRKKKRTEPQP | 0.6421 ± 0.00099 |
| KKRKNNKIRKKK | 0.723 ± 0.0053 |
| KKRTTKEKKQHK | 0.693 ± 0.033 |
| KKSQKSKNKTHN | 0.571 ± 0.0066 |

| Sequence | protein stability index |
| --- | --- |
| KKTEGATEERKR | 0.692 ± 0.015 |
| KKTIENEGRNIL | 0.645 ± 0.0069 |
| KKTIEQNNLTIV | 0.7091 ± 0.002 |
| KLGWSVTRAEVN | 0.687 ± 0.017 |
| KLKITSKDKIIK | 0.671 ± 0.016 |
| KLLRPMVLPQRT | 0.615 ± 0.02 |
| KLSIKNLFDLLY | 0.691 ± 0.033 |
| KLTVPTKTIVHT | 0.651 ± 0.03 |
| KLVGASVYECQR | 0.672 ± 0.012 |
| KMGTEEGRVWVG | 0.651 ± 0.054 |
| KMVTRKKNEEKD | 0.6328 ± 0.0029 |
| KNEKEKKTKMRN | 0.754 ± 0.14 |
| KNGLERFTSNRS | 0.641 ± 0.051 |
| KNKQSKNKSKRK | 0.712 ± 0.038 |
| KNKTRSEISKNS | 0.6974 ± 0.0017 |
| KNNSKKRKLKPR | 0.718 ± 0.14 |
| KNRKKIKIVCVK | 0.559 ± 0.026 |
| KNRKTQSNQTKI | 0.719 ± 0.025 |
| KNSNIDKMIRKE | 0.6973 ± 0.0012 |
| KNTRIKKMKRRT | 0.827 ± 0.097 |
| KNTVRKCNGRMH | 0.57 ± 0.063 |
| KPRKEKRGLVNS | 0.664 ± 0.039 |
| KPSHNEARKKGG | 0.681 ± 0.014 |
| KQGKKKDEWTRG | 0.6945 ± 0.0023 |
| KQKIKKRIKKTI | 0.6958 ± 0.0029 |

| Sequence | protein stability index |
| --- | --- |
| KQKIKTDKYKKD | 0.656 ± 0.051 |
| KQKLEGTIIREL | 0.674 ± 0.024 |
| KQRENMCRCARE | 0.712 ± 0.074 |
| KQRTRKYLNSRN | 0.654 ± 0.12 |
| KRDNKNKDKQKK | 0.7 ± 0.024 |
| KREKKNTYIKKV | 0.671 ± 0.04 |
| KREQKPHPKLKL | 0.5682 ± 0.0021 |
| KRGGRGEKAEGK | 0.655 ± 0.024 |
| KRGRISKKRDSS | 0.759 ± 0.017 |
| KRGSREQQRYWK | 0.659 ± 0.027 |
| KRIGLGEERQKR | 0.57 ± 0.078 |
| KRIIRSYHFLGC | 0.698 ± 0.047 |
| KRIKTEKRRSKK | 0.748 ± 0.046 |
| KRILKEKRRKKN | 0.658 ± 0.036 |
| KRITLNADIIIK | 0.629 ± 0.11 |
| KRKHQSPLLNTR | 0.705 ± 0.021 |
| KRKQDKEAEKKS | 0.704 ± 0.019 |
| KRKREKKEKADA | 0.66 ± 0.043 |
| KRLCTYRMIGSL | 0.521 ± 0.0089 |
| KRLNRVHRSTKV | 0.687 ± 0.021 |
| KRNSLSLIPQII | 0.655 ± 0.071 |
